Measured values as given in patent US20100204105A1 (ZEALAND PHARMA A S, published 2010).

What was measured:
[1] = target: human glucagon receptor (Glucagon-R) (human, UniProt P47871 26-477); experiment: cell-based or functional assay
[2] = target: human glucagon-like peptide 1 receptor (GLP-1R) (human, UniProt P43220 24-463); experiment: cell-based or functional assay

human glucagon receptor (Glucagon-R), sequence (P47871 26-477): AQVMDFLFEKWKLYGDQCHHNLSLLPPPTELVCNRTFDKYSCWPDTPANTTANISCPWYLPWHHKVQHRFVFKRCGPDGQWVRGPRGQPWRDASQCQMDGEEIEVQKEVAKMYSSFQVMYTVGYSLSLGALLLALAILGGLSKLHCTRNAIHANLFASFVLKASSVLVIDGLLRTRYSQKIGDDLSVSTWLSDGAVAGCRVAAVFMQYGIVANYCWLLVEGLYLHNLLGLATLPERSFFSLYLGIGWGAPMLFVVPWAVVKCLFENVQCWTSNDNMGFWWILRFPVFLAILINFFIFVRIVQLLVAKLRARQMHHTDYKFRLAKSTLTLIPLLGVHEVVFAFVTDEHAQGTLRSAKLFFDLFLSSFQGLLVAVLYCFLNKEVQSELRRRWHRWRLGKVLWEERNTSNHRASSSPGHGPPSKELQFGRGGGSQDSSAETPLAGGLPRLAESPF

## H-HSQGTFTSDYSKYLDRARADDFVAWLKST-NH2 [Compound 3 (H-HSQGTFTSDYSKYLDRARADDFVAWLKST-NH2)]
[1]
  EC50, cAMP content in HEK293 cells expressing hGlucagon-R (FlashPlate cAMP kit): 7.3 µM
  EC50, cAMP content in HEK293 cells expressing hGlucagon-R (FlashPlate cAMP kit), re-test: 0.00049 µM
[2]
  EC50, cAMP content in HEK293 cells expressing hGLP-1-R (FlashPlate cAMP kit): 9.3 µM
